Test results from paper PMC9482650, “Quantitative fragmentomics allow affinity mapping of interactomes” (Nature Communications, 2022).

Experiments:
Assay in all cases: holdup assay
Parameters in all cases: key: below the threshold = too weak to quantify, mostly under pKd 3.1 to 4
[1] = target: AHNAK1, Q09666
[2] = target: T1, APBA1_2, Q02410
T1 sequence (Q02410 742-832, limits assumed, looked up): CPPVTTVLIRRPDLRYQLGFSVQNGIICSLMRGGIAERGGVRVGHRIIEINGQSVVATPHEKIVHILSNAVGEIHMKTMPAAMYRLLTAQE

[3] = target: DLG1_2, Q12959
[4] = target: T2, DLG3_3, Q92796
T2 sequence (Q92796 374-475, limits assumed, looked up): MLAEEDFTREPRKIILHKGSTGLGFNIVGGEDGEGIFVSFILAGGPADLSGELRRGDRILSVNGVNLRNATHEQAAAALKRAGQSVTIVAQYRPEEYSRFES

[5] = target: DLG4_2, P78352
[6] = target: FRMPD2_1, Q68DX3
[7] = target: FRMPD2_2, Q68DX3
[8] = target: FRMPD4, Q14CM0
[9] = target: GRID2IP_2, A4D2P6
[10] = target: T3, GRIP1_4, Q9Y3R0
T3 sequence (Q9Y3R0 467-571, limits assumed, looked up): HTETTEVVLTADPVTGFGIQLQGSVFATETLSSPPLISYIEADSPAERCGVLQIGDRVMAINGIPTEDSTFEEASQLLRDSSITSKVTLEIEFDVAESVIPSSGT

[11] = target: T4, GRIP1_7, Q9Y3R0
T4 sequence (Q9Y3R0 999-1096, limits assumed, looked up): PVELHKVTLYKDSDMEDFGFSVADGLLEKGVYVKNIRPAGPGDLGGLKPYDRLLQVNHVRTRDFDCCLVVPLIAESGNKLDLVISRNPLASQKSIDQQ

[12] = target: GRIP2_7, Q9C0E4
[13] = target: LIMK2, P53671
[14] = target: T5, LIN7B, Q9HAP6
T5 sequence (Q9HAP6 88-185, limits assumed, looked up): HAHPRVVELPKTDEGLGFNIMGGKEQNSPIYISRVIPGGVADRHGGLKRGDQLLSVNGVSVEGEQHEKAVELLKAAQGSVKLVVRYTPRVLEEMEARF

[15] = target: LNX1_3, Q8TBB1
[16] = target: MAGI2_4, Q86UL8
[17] = target: MAGI2_6, Q86UL8
[18] = target: T6, MPDZ_12, O75970
T6 sequence (O75970 1857-1958, limits assumed, looked up): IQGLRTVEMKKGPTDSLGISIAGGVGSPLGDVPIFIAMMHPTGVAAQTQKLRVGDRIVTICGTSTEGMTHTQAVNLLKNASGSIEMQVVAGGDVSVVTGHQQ

[19] = target: T7, MPP2, Q14168
T7 sequence (Q14168 180-250, limits assumed, looked up): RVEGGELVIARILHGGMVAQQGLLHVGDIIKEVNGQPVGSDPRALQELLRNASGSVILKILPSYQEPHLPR

[20] = target: T8, NHERF3_4, Q5T2W1
T8 sequence (Q5T2W1 373-468, limits assumed, looked up): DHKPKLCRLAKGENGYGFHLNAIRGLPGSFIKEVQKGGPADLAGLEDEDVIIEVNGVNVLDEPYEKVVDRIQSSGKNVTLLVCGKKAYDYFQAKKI

[21] = target: NHERF4_2, Q86UT5
[22] = target: NOS1, P29475
[23] = target: PARD3_3, Q8TEW0
[24] = target: T9, PDZD2_2, O15018
T9 sequence (O15018 329-429, limits assumed, looked up): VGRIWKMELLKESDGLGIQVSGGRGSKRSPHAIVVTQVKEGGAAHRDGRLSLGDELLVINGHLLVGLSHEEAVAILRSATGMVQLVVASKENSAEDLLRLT

[25] = target: T10, PTPN13_1, Q12923
T10 sequence (Q12923 1088-1188, limits assumed, looked up): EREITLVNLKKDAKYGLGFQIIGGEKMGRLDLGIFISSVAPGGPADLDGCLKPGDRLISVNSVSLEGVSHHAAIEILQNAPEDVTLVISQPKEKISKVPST

[26] = target: SCRIB_3, Q14160
[27] = target: T11, SNTG2, Q9NY99
T11 sequence (Q9NY99 68-166, limits assumed, looked up): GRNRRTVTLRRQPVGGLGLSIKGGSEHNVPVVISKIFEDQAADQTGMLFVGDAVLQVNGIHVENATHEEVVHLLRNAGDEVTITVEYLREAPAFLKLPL

[28] = plain residues with an end cap or a label only (N-terminal biotin on a linker: ttds)
[29] = plain residues with an end cap or a label only (N-terminal biotin on a linker: ado-ado)
[30] = plain residues with an end cap or a label only (N-terminal biotin on a linker: ahx)

Sequence of GRID2IP_2, A4D2P6 (A4D2P6 272-370): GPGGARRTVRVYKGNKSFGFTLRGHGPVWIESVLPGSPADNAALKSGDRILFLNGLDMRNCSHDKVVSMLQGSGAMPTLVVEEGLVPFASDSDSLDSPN
Sequence of GRIP2_7, Q9C0E4 (Q9C0E4 934-1023): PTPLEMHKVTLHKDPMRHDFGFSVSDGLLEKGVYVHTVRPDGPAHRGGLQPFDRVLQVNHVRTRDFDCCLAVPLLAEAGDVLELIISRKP
Sequence of SCRIB_3, Q14160 (Q14160 999-1103): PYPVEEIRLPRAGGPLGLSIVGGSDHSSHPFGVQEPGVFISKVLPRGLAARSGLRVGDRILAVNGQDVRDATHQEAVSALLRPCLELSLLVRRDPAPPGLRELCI
Sequence of DLG1_2, Q12959 (Q12959 314-412): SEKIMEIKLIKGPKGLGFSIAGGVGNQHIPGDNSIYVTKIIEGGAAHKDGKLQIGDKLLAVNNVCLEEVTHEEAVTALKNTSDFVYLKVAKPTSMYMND
Sequence of MAGI2_4, Q86UL8 (Q86UL8 772-865): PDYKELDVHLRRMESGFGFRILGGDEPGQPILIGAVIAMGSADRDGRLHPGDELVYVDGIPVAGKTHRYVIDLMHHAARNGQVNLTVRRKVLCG
Sequence of FRMPD2_1, Q68DX3 (Q68DX3 770-861): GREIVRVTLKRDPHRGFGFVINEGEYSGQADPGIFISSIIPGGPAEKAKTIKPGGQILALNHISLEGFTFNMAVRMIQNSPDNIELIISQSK
Sequence of FRMPD4, Q14CM0 (Q14CM0 67-160): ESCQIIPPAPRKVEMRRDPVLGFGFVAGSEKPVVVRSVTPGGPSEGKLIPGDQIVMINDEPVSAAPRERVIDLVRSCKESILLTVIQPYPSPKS
Sequence of DLG4_2, P78352 (P78352 155-259): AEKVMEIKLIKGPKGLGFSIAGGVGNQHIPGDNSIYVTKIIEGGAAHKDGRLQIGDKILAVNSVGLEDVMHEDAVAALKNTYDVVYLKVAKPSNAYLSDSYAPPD
Sequence of PARD3_3, Q8TEW0 (Q8TEW0 582-685): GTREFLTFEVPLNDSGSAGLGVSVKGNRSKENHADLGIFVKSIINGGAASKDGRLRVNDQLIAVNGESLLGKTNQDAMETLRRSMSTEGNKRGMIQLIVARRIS
Sequence of MAGI2_6, Q86UL8 (Q86UL8 1141-1229): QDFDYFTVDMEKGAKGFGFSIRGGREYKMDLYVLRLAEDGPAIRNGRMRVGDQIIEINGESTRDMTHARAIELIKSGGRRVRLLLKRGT
Sequence of FRMPD2_2, Q68DX3 (Q68DX3 944-1038): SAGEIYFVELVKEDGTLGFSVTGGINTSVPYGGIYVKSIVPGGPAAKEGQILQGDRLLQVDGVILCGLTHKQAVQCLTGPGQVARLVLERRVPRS
Sequence of LIMK2, P53671 (P53671 143-248): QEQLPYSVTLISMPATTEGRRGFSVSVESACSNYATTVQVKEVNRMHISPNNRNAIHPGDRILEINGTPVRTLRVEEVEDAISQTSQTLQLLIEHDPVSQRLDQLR
Sequence of AHNAK1, Q09666 (Q09666 4-100): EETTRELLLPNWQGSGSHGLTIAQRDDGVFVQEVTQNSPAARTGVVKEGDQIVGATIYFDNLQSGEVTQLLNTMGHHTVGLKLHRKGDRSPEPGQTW
Sequence of LNX1_3, Q8TBB1 (Q8TBB1 500-596): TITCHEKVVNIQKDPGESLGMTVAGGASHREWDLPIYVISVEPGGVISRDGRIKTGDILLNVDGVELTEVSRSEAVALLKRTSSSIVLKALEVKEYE
Sequence of NHERF4_2, Q86UT5 (Q86UT5 220-308): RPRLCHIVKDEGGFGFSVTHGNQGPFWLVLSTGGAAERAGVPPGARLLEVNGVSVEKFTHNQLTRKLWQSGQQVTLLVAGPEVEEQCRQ
Sequence of NOS1, P29475 (P29475 9-101): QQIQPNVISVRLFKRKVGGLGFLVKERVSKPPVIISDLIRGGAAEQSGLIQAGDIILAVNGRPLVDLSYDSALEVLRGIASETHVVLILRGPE

## QFQYAKESYI [TAGAP, Q8N103]
[1]; [28]
  pKd: below the threshold
[2]; [28]
  pKd: 3.8
[3]; [28]
  pKd: 4.85
[4]; [28]
  pKd: 3.57
[5]; [28]
  pKd: 4.41
[6]; [28]
  pKd: below the threshold
[7]; [28]
  pKd: 4.33
[8]; [28]
  pKd: below the threshold
[9]; [28]
  pKd: 3.72
[10]; [28]
  pKd: below the threshold
[11]; [28]
  pKd: below the threshold
[12]; [28]
  pKd: below the threshold
[13]; [28]
  pKd: below the threshold
[14]; [28]
  pKd: below the threshold
[15]; [28]
  pKd: below the threshold
[16]; [28]
  pKd: below the threshold
[17]; [28]
  pKd: 3.99
[18]; [28]
  pKd: below the threshold
[19]; [28]
  pKd: below the threshold
[20]; [28]
  pKd: below the threshold
[21]; [28]
  pKd: below the threshold
[22]; [28]
  pKd: 3.82
[23]; [28]
  pKd: 3.91
[24]; [28]
  pKd: 5.04
[25]; [28]
  pKd: below the threshold
[26]; [28]
  pKd: 4.67
[27]; [28]
  pKd: 4.42

## SRRPRTETQV [HPV31-E6, P17386]
[1]; [28]
  pKd: below the threshold
[2]; [28]
  pKd: below the threshold
[3]; [28]
  pKd: 5.79
[4]; [28]
  pKd: 5.1
[5]; [28]
  pKd: 5.36
[6]; [28]
  pKd: below the threshold
[7]; [28]
  pKd: below the threshold
[8]; [28]
  pKd: below the threshold
[9]; [28]
  pKd: below the threshold
[10]; [28]
  pKd: below the threshold
[11]; [28]
  pKd: below the threshold
[12]; [28]
  pKd: below the threshold
[13]; [28]
  pKd: below the threshold
[14]; [28]
  pKd: 3.68
[15]; [28]
  pKd: below the threshold
[16]; [28]
  pKd: 4.48
[17]; [28]
  pKd: below the threshold
[18]; [28]
  pKd: below the threshold
[19]; [28]
  pKd: below the threshold
[20]; [28]
  pKd: below the threshold
[21]; [28]
  pKd: below the threshold
[22]; [28]
  pKd: 3.91
[23]; [28]
  pKd: below the threshold
[24]; [28]
  pKd: 3.7
[25]; [28]
  pKd: below the threshold
[26]; [28]
  pKd: 4.56
[27]; [28]
  pKd: 4.08

## GKKSVKHSKI [ACOT6, Q3I5F7]
[1]; [29]
  pKd: below the threshold
[2]; [29]
  pKd: below the threshold
[3]; [29]
  pKd: 3.97
[4]; [29]
  pKd: below the threshold
[5]; [29]
  pKd: 3.88
[6]; [29]
  pKd: below the threshold
[7]; [29]
  pKd: below the threshold
[8]; [29]
  pKd: below the threshold
[9]; [29]
  pKd: 3.83
[10]; [29]
  pKd: below the threshold
[11]; [29]
  pKd: below the threshold
[12]; [29]
  pKd: below the threshold
[13]; [29]
  pKd: below the threshold
[14]; [29]
  pKd: below the threshold
[15]; [29]
  pKd: below the threshold
[16]; [29]
  pKd: below the threshold
[17]; [29]
  pKd: below the threshold
[18]; [29]
  pKd: below the threshold
[19]; [29]
  pKd: below the threshold
[20]; [29]
  pKd: below the threshold
[21]; [29]
  pKd: below the threshold
[22]; [29]
  pKd: below the threshold
[23]; [29]
  pKd: below the threshold
[24]; [29]
  pKd: 4.03
[25]; [29]
  pKd: 3.47
[26]; [29]
  pKd: below the threshold
[27]; [29]
  pKd: 3.52

## TIVSWPGTFL [LNX1, Q8TBB1]
[1]; [30]
  pKd: below the threshold
[2]; [30]
  pKd: 4.33
[3]; [30]
  pKd: below the threshold
[4]; [30]
  pKd: below the threshold
[5]; [30]
  pKd: below the threshold
[6]; [30]
  pKd: below the threshold
[7]; [30]
  pKd: 3.58
[8]; [30]
  pKd: 3.73
[9]; [30]
  pKd: 4.16
[10]; [30]
  pKd: below the threshold
[11]; [30]
  pKd: below the threshold
[12]; [30]
  pKd: below the threshold
[13]; [30]
  pKd: below the threshold
[14]; [30]
  pKd: 3.48
[15]; [30]
  pKd: below the threshold
[16]; [30]
  pKd: below the threshold
[17]; [30]
  pKd: 3.67
[18]; [30]
  pKd: 3.54
[19]; [30]
  pKd: below the threshold
[20]; [30]
  pKd: below the threshold
[21]; [30]
  pKd: below the threshold
[22]; [30]
  pKd: below the threshold
[23]; [30]
  pKd: below the threshold
[24]; [30]
  pKd: 4.03
[25]; [30]
  pKd: below the threshold
[26]; [30]
  pKd: 4.29
[27]; [30]
  pKd: below the threshold
